Measurements: PMC9691347, “C9orf72 regulates the unfolded protein response and stress granule formation by interacting with eIF2α” (Theranostics, 2022)

Molecular target: T1, MBP-tagged eIF2α (MBP-eIF2α) (human, UniProt P05198 1-315)
T1 construct: full-length human EIF2S1 cDNA in pMAL-c2x; source: Rosetta E. coli, purified (dextrin beads 6FF)
Test: pull-down; 0.5 µg purified GST or GST-tagged proteins on glutathione magnetic beads, incubated with 0.5 µg purified MBP or MBP-eIF2α for 4 h at 4°C; six washes with 400 mM NaCl, 0.5% Triton X-100; western blot
Conditions: both partners purified

T1 sequence (P05198 whole entry): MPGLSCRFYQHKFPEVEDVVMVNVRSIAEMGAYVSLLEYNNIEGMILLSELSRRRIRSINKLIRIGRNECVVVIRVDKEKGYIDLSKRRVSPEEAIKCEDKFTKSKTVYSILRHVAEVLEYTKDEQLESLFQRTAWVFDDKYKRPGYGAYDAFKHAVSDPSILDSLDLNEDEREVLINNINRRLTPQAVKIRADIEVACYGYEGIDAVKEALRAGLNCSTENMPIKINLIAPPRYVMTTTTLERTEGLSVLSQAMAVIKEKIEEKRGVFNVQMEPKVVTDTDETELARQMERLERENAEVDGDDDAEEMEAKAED

binding result: binds
B1: GST-tagged C9orf72 short protein isoform (GST-C9S) (natural protein, human, UniProt Q96LT7-2 1-222, looked up)
chain: MSTLCPPPSPAVAKTEIALSGKSPLLAATFAYWDNILGPRVRHIWAPKTEQVLLSDGEITFLANHTLNGEILRNAESGAIDVKFFVLSEKGVIIVSLIFDGNWNGDRSTYGLSIILPQTELSFYLPLHRVCVDRLTHIIRKGRIWMHKERQENVQKIILEGTERMEDQGQSIIPMLTGEVIPVMELLSSMKSHSVPEEIDIADTVLNDDDIGDSCHEGFLLK
notes: human C9orf72 short protein isoform, 222 aa, encoded by exons 2-5; pGEX-6P-1 vector; source: Rosetta E. coli, purified (glutathione magnetic beads)
